Measurements reported in patent publication US20230056252A1 (Gilead, published 2023).

How the values were obtained:
[1] = biological target: T1, CD3 expressed on cell-surface of primary human T cells (human, UniProt P07766 23-207; P04234 22-171); experiment: flow cytometry on PBMCs, % anti-huIgG+ CD8+ cells, donor hu 921
T1 construct: also called cell-surface CD3; human CD3
Method: (§1) Briefly, PBMCs from healthy human donors and healthy rhesus or cynomolgus monkey donors were incubated with different concentrations of HIV×CD3 bispecific molecules for 1 hour at RT. […] Cells were then washed, fixed/permeabilized, and analyzed on BD LSRFortessa. The percentage of α-huIgG-APC-positive CD4+ and CD8+ T cells and the mFI of the α-huIgG-APC of CD4+ and CD8+ cells were collected, and data analyzed using GraphPad Prism.

[2] = biological target: T1, CD3 expressed on cell-surface of …; experiment: flow cytometry on PBMCs, % anti-huIgG+ CD4+ cells, donor hu 711
Method: as §1

[3] = biological target: T1, CD3 expressed on cell-surface of …; experiment: flow cytometry on PBMCs, % anti-huIgG+ CD8+ cells, donor hu 711
Method: as §1

[4] = biological target: T2, CD3 on cynomolgus monkey T cells in PBMCs (cynomolgus monkey, UniProt Q95LI5 22-198); experiment: flow cytometry on PBMCs, % anti-huIgG+ CD8+ cells, donor cy 2177
T2 construct: whole, on cells; also called cynomolgus CD4+ and CD8+ T cells
T2 sequence (Q95LI5 22-198): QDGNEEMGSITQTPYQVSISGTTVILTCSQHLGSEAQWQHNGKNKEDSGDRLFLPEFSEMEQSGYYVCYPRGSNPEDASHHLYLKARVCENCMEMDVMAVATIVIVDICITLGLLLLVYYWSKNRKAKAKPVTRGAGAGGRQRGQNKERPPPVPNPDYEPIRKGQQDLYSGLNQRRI
Method: as §1

[5] = biological target: T2, CD3 on cynomolgus monkey T cells in …; experiment: flow cytometry on PBMCs, % anti-huIgG+ CD4+ cells, donor cy 2177
Method: as §1

[6] = biological target: T1, CD3 expressed on cell-surface of …; experiment: flow cytometry on PBMCs, % anti-huIgG+ CD4+ cells, donor hu 921
Method: as §1

T1 sequence (P07766 23-207 limits assumed, chain 1 of 2): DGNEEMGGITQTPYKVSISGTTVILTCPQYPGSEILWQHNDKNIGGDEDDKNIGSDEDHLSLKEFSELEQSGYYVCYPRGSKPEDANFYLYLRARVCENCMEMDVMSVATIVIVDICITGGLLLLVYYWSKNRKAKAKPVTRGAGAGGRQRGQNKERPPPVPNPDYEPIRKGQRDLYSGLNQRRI
T1 sequence (P04234 22-171 limits assumed, chain 2 of 2): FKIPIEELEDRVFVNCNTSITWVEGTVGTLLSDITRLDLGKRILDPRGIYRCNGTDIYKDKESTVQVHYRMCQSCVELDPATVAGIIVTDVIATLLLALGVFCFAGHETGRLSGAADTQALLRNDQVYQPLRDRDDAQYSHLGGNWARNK

B1: hCD4 D1.22 Fc AAS + W + YTE/huSP34.39.13 AAS + SAV + R (bispecific antibody, human IgG1, lambda, L234A L235A)
chain: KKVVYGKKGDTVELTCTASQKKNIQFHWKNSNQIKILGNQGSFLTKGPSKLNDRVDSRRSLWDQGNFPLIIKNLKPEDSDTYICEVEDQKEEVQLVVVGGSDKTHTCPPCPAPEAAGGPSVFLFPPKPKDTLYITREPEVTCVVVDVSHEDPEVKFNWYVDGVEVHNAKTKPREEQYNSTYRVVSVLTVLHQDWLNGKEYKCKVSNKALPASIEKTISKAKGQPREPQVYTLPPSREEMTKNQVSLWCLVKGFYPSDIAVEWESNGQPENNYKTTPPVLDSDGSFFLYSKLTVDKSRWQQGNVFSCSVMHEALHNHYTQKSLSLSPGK
heavy: EVQLVESGGGLVQPGGSLRLSCAASGFTFNTYAMNWVRQAPGKGLEWVGRIRSKYNNYATYYADSVKSRFTISRDDSKNSLYLEMNSLRTEDTAVYYCVRHGNFGHSYVSWFAYWGQGTLVTVSSASTKGPSVFPLAPSSKSTSGGTAALGCLVKDYFPEPVTVSWNSGALTSGVHTFPAVLQSSGLYSLSSVVTVPSSSLGTQTYICNVNHKPSNTKVDKKVEPKSCDKTHTCPPCPAPEAAGGPSVFLFPPKPKDTLMISRTPEVTCVVVDVSHEDPEVKFNWYVDGVEVHNAKTKPREEQYNSTYRVVSVLTVLHQDWLNGKEYKCKVSNKALPASIEKTISKAKGQPREPQVYTLPPSREEMTKNQVSLSCAVKGFYPSDIAVEWESNGQPENNYKTTPPVLDSDGSFFLVSKLTVDKSRWQQGNVFSCSVMHEALHNRYTQKSLSLSPGK
light: QAVVTQEPSLTVSPGGTVTLTCGSSTGAVTTGHYANWVQQKPGQAPRGLIGGTSNRAPGVPARFSGSLLGGKAALTISGAQPEDEAEYYCALWYSNRWVFGGGTKLTVLGQPKAAPSVTLFPPSSEELQANKATLVCLISDFYPGAVTVAWKADSSPVKAGVETTTPSKQSNNKYAASSYLSLTPEQWKSHRSYSCQVTHEGSTVEKTVAPTECS
notes: also called 180; CD4 x huSP34 bispecific 180
[1]
  EC50: 0.08 µg/mL
[2]
  EC50: 0.54 µg/mL
[3]
  EC50: 1.1 µg/mL
[4]
  EC50: 1.09 µg/mL
[5]
  EC50: 0.5 µg/mL
[6]
  EC50: 0.09 µg/mL
